Experiment: soluble on expression in E. coli; label from the status in PepcDB or PDB records

Sequence | soluble on expression in E. coli
MSTPTGQPIGLGLPDAPLPVLAPRRKTRQLMVGNVGVGSDYPVSVQSMTTTKTHDVNATLQQIAQLTASGCDIVRVACPKTVDAEALPAIAKKSPIPVIADIHFQPKYIFSAIDAGCAAVRVNPGNIKEFDGRVKEVAKAAGDAGIPIRIGVNAGSLDKRIMEKYGKATPEALVESALWEAGLFEDCGFGDIAISVKHNDPVIMVEAYRQLAAQSDYPLHLGVTEAGPAFQGTIKSSVAFGSLLSQGIGDTIRVSLSADPVEEIKVGDQILQSLNLRKRGLEIVSCPSCGRAQVDVYSLAEEVTAALDGMSIPLRVAVMGCVVNGPGEARDADLGVASGNGKGQIFVRGEVIKTVPESQIVETLIEEAVRLAEAEGLEIEEGAGPQVKITR | not soluble
MSTQPDTSLRATKRLKTRISVEDAATALVLRDGFDNVTVEDICAAAEISKRTFFNYFDSKENAVFGDIQVDILPQLREEFLSHPHEDLPEAVIRLHMNLVFSGKDFDPHTRGEIIRRRKTIRHNNPERSFNYNALYHKVFINFKTLVNEYFEHFPEQRRLGGDVDVEATAVVLSSSYAIRFGFTLWADSPSASFSTLEESCLEALVHLRTINKGL | not soluble
MSTSDTPRTYHHGNLPAVLRQAAWDIVGEAGVRSVSLRECARRANVSHAAPAHHFGSLENLLAEVVADGYERMVDAVQAAQRELDDPVLGCGMGYVNFARQYPQHFRLMFGMTGVNRALPRLVNSGEATLQLLRQSLRTAWIAKNGVEPEPALLEQRTLLAWSTAHGYASLAIDRTTVEPFVVSAESILQPMAVFLLTP | not soluble
MSTSSVRFAFRRFWQSETGPKTVHFWAPTLKWGLVFAGFSDMKRPVEKISGAQNLSLLSTALIWTRWSFVIKPRNILLASVNSFLCLTAGYQLGRIANYRIRNGDSISQLCSYILSGADESKKEITTGR | not soluble
MSTTANKERCLEMVAAWNRWDVSGVVAHWAPDVVHYDDEDKPVSAEEVVRRMNSAVEAFPDLRLDVRSIVGEGDRVMLRITCSATHQGVFMGIAPTGRKVRWTYLEELRFSEAGKVVEHWDVFNFSPLFRDLGVVPDGL | soluble
MSTTKKGDTYNEAWVKDTNGFDILMGQFAHNIENIWGFKEVVIAGPKDYVKYTDQYQTRSHINFDDGTITIETIAGTEPAAHLRRAIIKTLLMGDDPSSVDLYSDVDDITISKEPFLYGQVVDNTGQPIRWEGRASNFADYLLKNRLKSRSNGLRIIYSVTINMVPNHLDKRAHKYLGMVRQASRKYGVDESLILAIMQTESSFNPYAVSRSDALGLMQVVQHTAGKDVFRSQGKSGTPSRSFLFDPASNIDTGTAYLAMLNNVYLGGIDNPTSRRYAVITAYNGGAGSVLRVFSNDKIQAANIINTMTPGDVYQTLTTRHPSAESRRYLYKVNTAQKSYRRRLEHHHHHH | soluble
MSTWRDSLLPASFRGVGFFIEKAVVPVGRKGQLHEFPQRDEPYFESLGKQAQVHTLTAFIVGRDCFEKRDNLLQALEKDGAGELVHPWLGRMQVQV | not soluble
MSTYDTAVLDDTLVSCLSQLIGAEHIDTLTLEGRFEITRIAAALSGRPGPAPRAILMSGLQGSGKTTLARALEAAGFRRLCPDEEMFRRYGHYGRDFPRGEFRVREAPVLKDIALELQELLTAGHEVVVDHGFWTREERAQWAMTVMEAGGKPVLIYLPVPHEVRWDRIRKRNEQSLVDANSIEFSEEDLLRHAGRFSPPTDDEPHIVYDGQPDSVLADIQLSRHFDALEHHHHHH | not soluble
MSVAGLKKQFHKATQKVSEKVGGAEGTKLDDDFKEMERKVDVTSRAVMEIMTKTIEYLQPNPASRAKLSMINTMSKIRGQEKGPGYPQAEALLAEAMLKFGRELGDDCNFGPALGEVGEAMRELSEVKDSLDIEVKQNFIDPLQNLHDKDLREIQHHLKKLEGRRLDFDYKKKRQGKIPDEELRQALEKFDESKEIAESSMFNLLEMDIEQVSQLSALVQAQLEYHKQAVQILQQVTVRLEERIRQASSQPRREYQPKPRMSLEFPTGDSTQPNGGLSHTGTPKPSGVQMDQPCCRALYDFEPENEGELGFKEGDIITLTNQIDENWYEGMLHGHSGFFPINYVEILVALPH | soluble
MSVKISGKDYAGMYGPTKGDRVRLADTDLIIEIEEDYTVYGDECKFGGGKSIRDGMGQSPSAARDDKVLDLVITNAIIFDTWGIVKGDIGIKDGKIAGIGKAGNPKVMSGVSEDLIIGASTEVITGEGLIVTPGGIDTHIHFICPQQIETALFSGITTMIGGGTGPADGTNATTCTPGAFNIRKMLEAAEDFPVNLGFLGKGNASFETPLIEQIEAGAIGLKLHEDWGTTPKAIDTCLKVADLFDVQVAIHTDTLNEAGFVENTIAAIAGRTIHTYHTEGAGGGHAPDIIKIASRMNVLPSSTNPTMPFTVNTLDEHLDMLMVCHHLDSKVKEDVAFADSRIRPETIAAEDILHDMGVFSMMSSDSQAMGRVGEVIIRTWQTAHKMKLQRGALPGEKSGCDNIRAKRYLAKYTINPAITHGISQYVGSLEKGKIADLVLWKPAMFGVKPEMIIKGGFIIAGRMGDANASIPTPQPVIYKNMFGAFGKAKYGTCVTFVSKASLENGVVEKMGLQRKVLPVQGCRNISKKYMVHNNATPEIEVDPETYEVKVDGEIITCEPLKVLPMAQRYFLF | not soluble
MSVPAGSVSCLANALLNLRSSTDYNADHGVKNSILNFSNSKDASRFDGSESWSSSVLDKNQFIVAGSDSVKHFVAISTQGRGDHDQWVTSYKLRYTLDNVNWVEYNNGEIINANKDRNSIVTINFNPPIKARSIAIHPQTYNNHISLRWELYALPVKSYSNPSVQVGEVSIGDRSLNSGTGSRTIVRHVKFPVEFLSVPIVSIGCKKVDAHTDNGQMRWEGKSENITTKGFDLTFITWGNNAVYDLTFDYVAVEFNN | soluble
MSVQSITESNQPPVICLMGPTASGKTALAMALKDALPCDIVSVDSALIYRDMDIGTAKPTKSELVQYPHRLIDLRDASESYSAADFCRDALVEIAEIRSNGRIPLLVGGTMMYFKSLIEGISPLPTANPEIRQAIEAEALSKGWQAMHDQLAEIDPVSAERIHPNDPQRITRALEVYRLTSNTLTQLTQIKGAKLAGDVLQLAITPRERSTLHERIALRYQQMIDLGFEQEVIKLKSRDDLHQDLPSIRCVGYRQMWQHLEGEFDHDEMIFRGVCATRQLAKRQLTWLRNWPDLHWLTTDDKTNLAQVLSLLEAKH | not soluble
MSVVGEERKRTILEKVEFKGKVKVSELAREFAVSTETIRRYLEELDREKKLKKVYGGAVQLPGAGVEAPMLEREMLHIEEKKRIGYKAATFVEDGDVIAIDDGSTPLQMVPYLVHRKNLTIVTSSFPVATQLISSINKKMFHGEVLFIGGKVSPKHSRVSGSISQQVIQQFHFHKAFVSIDGLLPSFGVSSFELEKAKLSEAMMKLAEKTYILCDHTKVGVKGNYRIAAISRIQHVICDKKMPYSFEEELMKHNIQWTVCLEHHHHHH | soluble
MSVVSLVGQMYKREKPIPEWKTLMLRELEELFSKHRVVLFADLTGTPTFVVQRVRKKLWKKYPMMVAKKRIILRAMKAAGLELDDNLLDDLVRGQMLLVFADGNPFKIVKEVEKEKVAMPVKPGDKAETEIRIPEGMTNLTPGPILSVFGKLRIQYQVRGGKIYIAKETVVAKPGDVISEDLAGLLMALGIRPIEKGVRVKFAIDGGVLITEDLLRPDIEAFRGDVIDAAKEALGLATEIVYMPVPEAVESAIVKAALAASALAAETGFIAPGTVEDVVRKAIAEEAAVVALLGDKARELGIEEAAPAAAPAAEEKAEEEKKEEEEEKKEDQELSGLDSIFGGF | soluble
MSWKFEEKSPIYAQIAQHVMMQIISQEIKSGDQLPTVREYAEIAGVNPNTMQRAFTELEREGMVYSQRTAGRFVTDDQKLIARKRRELAISELESFITNMTKMGFSHTEIIPVLTSFLKEDSQ | not soluble
MSWSLLSNIIKKFTLLHHFQPIGYIYKYIHICTLNHSLGSCVLQANYSIQNNLRSRTLFIQSEITYSHSLESTHFFGILIFFNIKFRVFNRINDPWTVLDNVPEVMFHDRFFINDFTFWVDVLQEAFRMRRWIFRFEQLVVNPSFSNSQWRIIF | soluble

From the DeepSol protein solubility set
